Measurements taken from patent US20080194020A1 (MEDICAL AND BIOLOGICAL LABORATORIES, published 2008).

T1: TAP1 (mouse (endogenous in mouse DC2.4 cells), UniProt P21958 1-724)
T1 construct: Endogenous protein in the cell lysate; also called TAP1/2
T1 sequence (looked up): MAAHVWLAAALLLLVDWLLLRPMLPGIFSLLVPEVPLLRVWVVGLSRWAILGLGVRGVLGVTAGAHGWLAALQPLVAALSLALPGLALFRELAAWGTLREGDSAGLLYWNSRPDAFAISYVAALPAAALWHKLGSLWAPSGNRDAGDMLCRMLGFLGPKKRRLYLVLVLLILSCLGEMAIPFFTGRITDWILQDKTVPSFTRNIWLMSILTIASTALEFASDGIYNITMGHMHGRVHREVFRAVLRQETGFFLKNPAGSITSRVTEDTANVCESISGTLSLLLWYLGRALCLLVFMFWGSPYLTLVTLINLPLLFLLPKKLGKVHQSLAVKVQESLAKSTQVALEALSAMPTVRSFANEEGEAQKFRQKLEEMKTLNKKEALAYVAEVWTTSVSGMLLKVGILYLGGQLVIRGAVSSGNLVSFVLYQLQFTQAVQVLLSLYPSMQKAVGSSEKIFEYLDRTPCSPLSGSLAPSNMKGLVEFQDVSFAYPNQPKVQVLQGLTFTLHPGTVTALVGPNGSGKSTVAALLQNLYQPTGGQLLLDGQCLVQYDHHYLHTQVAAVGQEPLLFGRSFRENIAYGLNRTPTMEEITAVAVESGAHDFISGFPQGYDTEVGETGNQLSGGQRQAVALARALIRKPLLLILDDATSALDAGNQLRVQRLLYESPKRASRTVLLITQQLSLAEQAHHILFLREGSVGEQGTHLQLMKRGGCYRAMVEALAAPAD

T2: TAP2 (mouse (endogenous in mouse DC2.4 cells), UniProt P36371 1-702)
T2 construct: Endogenous protein in the cell lysate; also called TAP1/2
T2 sequence (looked up): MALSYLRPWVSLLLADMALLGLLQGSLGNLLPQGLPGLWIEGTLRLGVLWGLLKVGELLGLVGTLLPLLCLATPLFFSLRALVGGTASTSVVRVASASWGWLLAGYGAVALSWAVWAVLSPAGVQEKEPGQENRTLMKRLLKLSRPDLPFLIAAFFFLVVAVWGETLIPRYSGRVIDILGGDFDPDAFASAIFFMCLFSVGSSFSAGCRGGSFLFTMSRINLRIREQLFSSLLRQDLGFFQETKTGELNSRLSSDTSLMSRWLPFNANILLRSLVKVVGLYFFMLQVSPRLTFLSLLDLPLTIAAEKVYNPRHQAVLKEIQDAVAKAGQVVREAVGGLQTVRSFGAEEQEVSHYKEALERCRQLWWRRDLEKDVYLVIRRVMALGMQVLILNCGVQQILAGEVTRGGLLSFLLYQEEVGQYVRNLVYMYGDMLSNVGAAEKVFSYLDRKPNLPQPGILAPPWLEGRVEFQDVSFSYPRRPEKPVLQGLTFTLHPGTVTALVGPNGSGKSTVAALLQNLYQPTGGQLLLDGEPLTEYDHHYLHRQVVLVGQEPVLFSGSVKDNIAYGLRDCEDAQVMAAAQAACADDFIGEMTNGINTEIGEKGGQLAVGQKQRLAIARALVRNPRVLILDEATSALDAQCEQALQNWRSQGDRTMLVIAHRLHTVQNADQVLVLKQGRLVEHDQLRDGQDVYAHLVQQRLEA

B1: biotin-labeled chicken ovalbumin (bOVA) (other, UniProt P01012 2-386, looked up)
chain: GSIGAASMEFCFDVFKELKVHHANENIFYCPIAIMSALAMVYLGAKDSTRTQINKVVRFDKLPGFGDSIEAQCGTSVNVHSSLRDILNQITKPNDVYSFSLASRLYAEERYPILPEYLQCVKELYRGGLEPINFQTAADQARELINSWVESQTNGIIRNVLQPSSVDSQTAMVLVNAIVFKGLWEKAFKDEDTQAMPFRVTEQESKPVQMMYQIGLFRVASMASEKMKILELPFASGTMSMLVLLPDEVSGLEQLESIINFEKLTEWTSSNVMEERKIKVYLPRMKMEEKYNLTSVLMAMGITDVFSSSANLSGISSAESLKISQAVHAAHAEINEAGREVVGSAEAGVDAASVSEEFRADHPFLFCIKHIATNAVLFFGRCVSP
modifications: biotin-labeled (sites not given)

Key:
[1] = molecular target: T1, TAP1; experiment: co-immunoprecipitation with anti-TAP1 from DC2.4 lysate, blot with SA-HRP
Description: (§1) DC2.4 cells were incubated with bOVA and subjected to co-immunoprecipitation with anti-Sec61α. bOVA was added at 2.5 mg mL⁻¹ to cell lysates before immunoprecipitation (the two left-hand lanes in each panel).
(§2) 2×10⁷ DC2.4 or BMDC cells were cultured for four hours in a medium containing 10 μM MG-132 in the presence of bOVA at 250 μg mL⁻¹. Cells were lysed in 20 mM HEPES pH7.6 containing 1% digitonin and protease inhibitors to collect biotin-labeled samples. The samples were cleared of impurities in advance using protein G sepharose (Amersham Pharmacia Biotech), and after incubation with antibodies for precipitation (anti-Sec61β, anti Sec61α, anti-VCP, anti-BiP, anti-PDI, anti-calreticulin, anti-TAP1, and anti-TAP2), the immunoprecipitates were collected using protein G. When chicken anti-CHIP antibody was used, immunoprecipitates were collected using a rabbit anti-IgY column (a person, MBL). The precipitated samples were analyzed by SDS-PAGE and Western blotting.

[2] = molecular target: T2, TAP2; experiment: co-immunoprecipitation with anti-TAP2 from DC2.4 lysate, blot with SA-HRP
Description: as §1, §2

[3] = molecular target: B1; experiment: cell-based or functional assay

Row | binding result [1] | binding result [2] | polyubiquitination of bOVA in CHIP-knocked-down DC2.4 cells relative to parental cells [3] | Binder
1 | no binding | no binding |  | B1
2 |  |  | 34% | CHIP, an E3-ubiquitin ligase (enzyme, mouse (endogenous in mouse DC2.4 cells), UniProt Q9WUD1 1-304, looked up) MKGKEEKEGGARLGTGGGGSPDKSPSAQELKEQGNRLFVGRKYPEAAACYGRAITRNPLVAVYYTNRALCYLKMQQPEQALADCRRALELDGQSVKAHFFLGQCQLEMESYDEAIANLQRAYSLAKEQRLNFGDDIPSALRIAKKKRWNSIEERRIHQESELHSYLTRLIAAERERELEECQRNHEGHEDDGHIRAQQACIEAKHDKYMADMDELFSQVDEKRKKRDIPDYLCGKISFELMREPCITPSGITYDRKDIEEHLQRVGHFDPVTRSPLTQEQLIPNLAMKEVIDAFISENGWVEDY
